Starred links: 1 amine or outer side, 2 acyl side, 3 side chain; linkers in the order of their positions; H or OH if unused. Positions of bridges follow the written chain, without caps; N, C: chain ends. Non-standard residues stand in square brackets, D forms with d. Primed or numbered codes have the meaning given here. B5(10) = 2-amino-2-(pent-4-en-1-yl)hept-6-enoic acid, bis(4-pentenyl)glycine, stitching residue bearing both staples, C=CCCCC(CCCC=C)(N[*:1])C(=O)[*:2]; B5(4) = 2,2-bis(4-pentenyl)glycine = 2-amino-2-(pent-4-en-1-yl)hept-6-enoic acid (stitching residue), C=CCCCC(CCCC=C)(N[*:1])C(=O)[*:2]; B5(20) = 2-amino-2-(pent-4-en-1-yl)hept-6-enoic acid = bis(4-pentenyl)glycine, stitching residue, C=CCCCC(CCCC=C)(N[*:1])C(=O)[*:2]; B5(21) = 2-amino-2-(pent-4-en-1-yl)hept-6-enoic acid, bis(4-pentenyl)glycine (stitching residue), C=CCCCC(CCCC=C)(N[*:1])C(=O)[*:2]; SeN = (S)-5-(((allyloxy)carbonyl)(methyl)amino)-2-amino-2-methylpentanoic acid, C=CCOC(=O)N(C)CCC[C@](C)(N[*:1])C(=O)[*:2]; Qui = (S)-2-amino-3-(quinolin-2-yl)propanoic acid, O=C([C@H](Cc1ccc2ccccc2n1)N[*:1])[*:2]; B5 = 2-amino-2-(pent-4-en-1-yl)hept-6-enoic acid, C=CCCCC(CCCC=C)(N[*:1])C(=O)[*:2]; (NHiPr)AsnR = N4-isopropyl-L-asparagine, CC(C)NC(=O)C[C@H](N[*:1])C(=O)[*:2]; B5(28) = 2,2-bis(4-pentenyl)glycine, C=CCCCC(CCCC=C)(N[*:1])C(=O)[*:2]; (NHEt)AsnR = N4-ethyl-L-asparagine, CCNC(=O)C[C@H](N[*:1])C(=O)[*:2]; Phe(2-CONH2) = NC(=O)c1ccccc1C[C@H](N)C(=O)O; S7 = C[C@@](CCCCCC=[*:3])(N[*:1])C(=O)[*:2]; Phe(2-OMe) = COc1ccccc1C[C@H](N)C(=O)O; 2Nal = N[C@@H](Cc1ccc2ccccc2c1)C(=O)O; Bta = N[C@@H](Cc1csc2ccccc12)C(=O)O; αAllylPro = C=CC[C@@]1(C(=O)O)CCCN1; Aad = N[C@@H](CCCC(=O)O)C(=O)O; S8 = C=CCCCCCC[C@](C)(N)C(=O)O; Aib = CC(C)(N)C(=O)O

The labels stand for the following.
T1: full-length beta-Catenin (Uniprot ID P35222) (Homo sapiens (Human), UniProt P35222 1-781)
T1 construct: also called bCat; B-Catenin
T1 sequence: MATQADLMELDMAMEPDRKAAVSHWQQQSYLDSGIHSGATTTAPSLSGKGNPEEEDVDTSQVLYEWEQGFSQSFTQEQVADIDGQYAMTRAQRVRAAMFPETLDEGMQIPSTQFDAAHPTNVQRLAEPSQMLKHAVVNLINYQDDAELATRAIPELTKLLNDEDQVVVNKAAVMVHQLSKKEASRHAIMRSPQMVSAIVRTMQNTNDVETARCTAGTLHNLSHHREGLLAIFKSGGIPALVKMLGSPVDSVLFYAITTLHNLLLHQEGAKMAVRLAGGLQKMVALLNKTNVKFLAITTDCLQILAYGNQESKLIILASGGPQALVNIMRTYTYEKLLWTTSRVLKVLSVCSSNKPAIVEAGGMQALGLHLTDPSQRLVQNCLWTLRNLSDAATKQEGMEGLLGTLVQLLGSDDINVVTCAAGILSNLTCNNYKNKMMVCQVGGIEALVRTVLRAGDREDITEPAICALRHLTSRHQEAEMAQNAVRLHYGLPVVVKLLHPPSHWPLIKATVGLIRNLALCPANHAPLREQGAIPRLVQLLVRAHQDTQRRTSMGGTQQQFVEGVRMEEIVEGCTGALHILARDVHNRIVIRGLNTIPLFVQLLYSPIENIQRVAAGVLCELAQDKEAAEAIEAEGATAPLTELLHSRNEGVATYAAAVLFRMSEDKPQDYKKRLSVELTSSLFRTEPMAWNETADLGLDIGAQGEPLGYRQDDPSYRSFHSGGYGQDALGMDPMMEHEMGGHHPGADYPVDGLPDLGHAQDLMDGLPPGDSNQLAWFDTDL

T2: beta-catenin (full-length, Uniprot ID P35222) (Homo sapiens (Human), UniProt P35222 2-781)
T2 construct: The FP protocol says 'full-length beta-Catenin (Uniprot ID P35222)'; also called bCat; B-Catenin
T2 sequence: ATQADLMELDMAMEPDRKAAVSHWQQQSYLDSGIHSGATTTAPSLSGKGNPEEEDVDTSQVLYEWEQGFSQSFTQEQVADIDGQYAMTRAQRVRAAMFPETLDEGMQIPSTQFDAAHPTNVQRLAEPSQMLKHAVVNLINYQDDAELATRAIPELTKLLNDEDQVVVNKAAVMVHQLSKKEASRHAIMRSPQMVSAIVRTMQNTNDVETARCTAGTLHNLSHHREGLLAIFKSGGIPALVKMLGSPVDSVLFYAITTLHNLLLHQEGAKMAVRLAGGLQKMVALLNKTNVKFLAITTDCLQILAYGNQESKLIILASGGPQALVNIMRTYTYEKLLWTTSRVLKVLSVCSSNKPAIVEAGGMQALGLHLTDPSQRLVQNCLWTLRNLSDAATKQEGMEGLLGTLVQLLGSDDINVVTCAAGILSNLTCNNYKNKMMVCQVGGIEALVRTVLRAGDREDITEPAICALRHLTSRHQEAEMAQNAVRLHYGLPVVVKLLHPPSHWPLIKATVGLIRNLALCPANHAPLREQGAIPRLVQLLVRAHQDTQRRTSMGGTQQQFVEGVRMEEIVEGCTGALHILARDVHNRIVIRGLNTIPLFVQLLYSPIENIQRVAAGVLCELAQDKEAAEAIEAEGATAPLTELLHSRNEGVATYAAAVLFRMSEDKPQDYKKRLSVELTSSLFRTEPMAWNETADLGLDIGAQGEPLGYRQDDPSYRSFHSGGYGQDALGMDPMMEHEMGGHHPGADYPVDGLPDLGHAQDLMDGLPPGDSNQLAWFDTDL

B1: I-507 (peptide)
peptide: XDAXDEAAFQXFXT
modifications: not fully specified; N-terminal acetyl (Ac); PL3 at X1, B5 at X4 and S8 at X11 stapled (PL3-B5 and B5-S8, olefin metathesis); BztA at X13; C-terminal amide (NH2)
notes: Stapled peptide composition; also called Ac-PL3-Asp-Ala-B5-Asp-Glu-Ala-Ala-Phe-Gln-S8-Phe-BztA-Thr-NH2
B2: I-527 (peptide)
peptide: XDIXDEAAFQXFXQ
modifications: not fully specified; N-terminal acetyl (Ac); PL3 at X1, B5 at X4 and S8 at X11 stapled (PL3-B5 and B5-S8, olefin metathesis); 2OMeF at X12; BztA at X13; C-terminal amide (NH2)
notes: Stapled peptide composition; also called Ac-PL3-Asp-Ile-B5-Asp-Glu-Ala-Ala-Phe-Gln-S8-2OMeF-BztA-Gln-NH2
B3: I-535 (peptide)
peptide: Ac-[αAllylPro]DA[B5(21)][(NHiPr)AsnR]DAAFV[S8]F[Bta]Q-NH2
modifications: staple 1-4, 4-11
notes: Stapled peptide composition; also called Ac-PL3-Asp-Ala-B5-[NHiPr]AsnR-Asp-Ala-Ala-Phe-Val-S8-Phe-BztA-Gln-NH2
B4: I-536 (peptide)
peptide: Ac-[αAllylPro]DA[B5(21)][(NHEt)AsnR]DAAFV[S8]F[Bta]Q-NH2
modifications: staple 1-4, 4-11
notes: Stapled peptide composition; also called Ac-PL3-Asp-Ala-B5-[NHEt]AsnR-Asp-Ala-Ala-Phe-Val-S8-Phe-BztA-Gln-NH2
B5: I-513 (peptide)
peptide: Ac-[αAllylPro]DA[B5(20)]DEAAFN[S8][Phe(2-CONH2)][Bta]H-NH2
modifications: staple 1-4, 4-11
notes: Stapled peptide composition; also called Ac-PL3-Asp-Ala-B5-Asp-Glu-Ala-Ala-Phe-Asn-S8-2CBMF-BztA-His-NH2
B6: I-512 (peptide)
peptide: Ac-[αAllylPro]DI[B5(20)]DEAAFN[S8][Phe(2-OMe)][Bta]H-NH2
modifications: staple 1-4, 4-11
notes: Stapled peptide composition; also called Ac-PL3-Asp-Ile-B5-Asp-Glu-Ala-Ala-Phe-Asn-S8-2OMeF-BztA-His-NH2
B7: I-514 (peptide)
peptide: Ac-[αAllylPro]DI[B5(20)]DEAAFN[S8][Phe(2-CONH2)][Bta]H-NH2
modifications: staple 1-4, 4-11
notes: Stapled peptide composition; also called Ac-PL3-Asp-Ile-B5-Asp-Glu-Ala-Ala-Phe-Asn-S8-2CBMF-BztA-His-NH2
B8: I-132: Ac-PL3-Asp-Ala-B5-Asp-Glu-Ala-Ala-Phe-Val-S7-Phe-Trp-Gln-NH2 (peptide)
peptide: Ac-[αAllylPro]DA[B5]DEAAFV[S7]FWQ-NH2
modifications: staple 1-4, 4-11
notes: Stapled peptide
B9: I-134: Ac-PL3-Asp-Ala-B5-Asp-Glu-Ala-Ala-Phe-Val-S8-Phe-Trp-Aib-NH2 (peptide)
peptide: Ac-[αAllylPro]DA[B5(28)]DEAAFV[S8]FW[Aib]-NH2
modifications: staple 1-4, 4-11
notes: Stapled peptide
B10: I-131: Ac-PL3-Asp-Ala-B5-Asp-Glu-Ala-Ala-Phe-Val-SeN-Phe-Trp-Gln-NH2 (peptide)
peptide: Ac-[αAllylPro]DA[B5(4)]DEAAFV[SeN]FWQ-NH2
modifications: staple 1-4, 4-11
notes: Stapled peptide
B11: I-143: Ac-PL3-Asp-Ala-B5-Asp-Glu-Ala-Ala-Phe-Val-S8-Phe-Qui-Gln-NH2 (peptide)
peptide: Ac-[αAllylPro]DA[B5(4)]DEAAFV[S8]F[Qui]Q-NH2
modifications: staple 1-4, 4-11
notes: Stapled peptide
B12: I-135: Ac-PL3-Asp-Ala-B5-Asp-Glu-Ala-Ala-Phe-Val-S8-Phe-Trp-Ala-NH2 (peptide)
peptide: Ac-[αAllylPro]DA[B5(4)]DEAAFV[S8]FWA-NH2
modifications: staple 1-4, 4-11
notes: Stapled peptide
B13: I-129: Ac-PL3-Asp-Ala-B5-Asp-Aad-Ala-Ala-Phe-Val-S8-Phe-Trp-Gln-NH2 (peptide)
peptide: Ac-[αAllylPro]DA[B5(10)]D[Aad]AAFV[S8]FWQ-NH2
modifications: staple 1-4, 4-11
notes: Stapled peptide
B14: I-133: Ac-PL3-Asp-Ala-B5-Asp-Glu-Ala-Ala-Phe-Val-S8-Phe-Trp-Aib-NH2 (peptide)
peptide: XDAXDEAAFVXFWX
modifications: not fully specified; N-terminal Ac; PL3 at 1; B5 at 4; S8 at 11; Aib at 14; C-terminal NH2; stapled by olefin metathesis (PL3-B5 and B5-S8)
notes: Stapled peptide
B15: I-140: Ac-PL3-Asp-Ala-B5-Asp-Glu-Ala-Ala-Phe-Val-S8-Phe-2NapA-Gln-NH2 (peptide)
peptide: Ac-[αAllylPro]DA[B5(21)]DEAAFV[S8]F[2Nal]Q-NH2
modifications: staple 1-4, 4-11
notes: Stapled peptide

The target in one test is T1, full-length beta-Catenin (Uniprot ID …). The test is described as follows: fluorescence polarization competition; 10 nM full-length beta-catenin + 10 nM 5FAM-TCF4(10-53) probe. As for the experimental part:
The plate was incubated protected from light for 60 minutes at 20° C. prior to read. Reads were performed on a CLARIOstar plate reader (BMG Labtech) in duplicate, and data were fitted to a 1:1 binding model with hill slope using an in-house script. All provided concentrations are final concentrations.
(In fluorescence polarisation assays a small probe gives low polarisation when free and higher when bound to something large.)
In general, EC50 refers to the concentration needed to bring the measured effect to its halfway point. With B1, the EC50 was 192 nM.

Take B2: the concentration giving a half-maximal response (EC50) was 98 nM.

In the case of B3, the concentration for a half-maximal effect (EC50) was 5000 nM.

With B4, the EC50 amounted to 4470 nM.

For B5, the EC50 worked out at 143 nM.

For the molecule B6, the EC50 was 20 nM.

In the case of B7, the EC50 is 30 nM.

A further test addresses T2, beta-catenin (full-length, Uniprot ID …). The test is described as follows: fluorescence polarization competition vs 5FAM-TCF4(10-53) on full-length beta-catenin. An outline of the steps: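 Incubate 60 minutes at 20° C. away from light, then read polarization in duplicate. Fit to 1:1 binding with hill slope.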
Usually IC50 stands for the point on the concentration scale where inhibition reaches its midpoint. The low end stands for higher potency, the high end for lower potency. Turning to B8, the IC50 stood at 5000 nM.

For B9, the IC50 was 2700 nM.

With B10, the IC50 stood at 2160 nM.

B11 showed an IC50 of 2270 nM.

In turn, B12 gave an IC50 of 1870 nM.

As for B13, the IC50 turned out to be 1980 nM.

The molecule B14 showed a half-inhibitory concentration (IC50) of 5000 nM.

As for B15, the IC50 was found to be 2270 nM.

The record behind these values is patent US20240116985A1 (published 2024).
